In the assay the target is T1, TRAP1 (human mitochondrial Hsp90) fused to SpyTag (human, UniProt Q12931 60-704, limits assumed).
T1 construct: Applied at 270 nM; also called TRAP1-SpyTag; TRAP1 with SpyTag
T1 sequence: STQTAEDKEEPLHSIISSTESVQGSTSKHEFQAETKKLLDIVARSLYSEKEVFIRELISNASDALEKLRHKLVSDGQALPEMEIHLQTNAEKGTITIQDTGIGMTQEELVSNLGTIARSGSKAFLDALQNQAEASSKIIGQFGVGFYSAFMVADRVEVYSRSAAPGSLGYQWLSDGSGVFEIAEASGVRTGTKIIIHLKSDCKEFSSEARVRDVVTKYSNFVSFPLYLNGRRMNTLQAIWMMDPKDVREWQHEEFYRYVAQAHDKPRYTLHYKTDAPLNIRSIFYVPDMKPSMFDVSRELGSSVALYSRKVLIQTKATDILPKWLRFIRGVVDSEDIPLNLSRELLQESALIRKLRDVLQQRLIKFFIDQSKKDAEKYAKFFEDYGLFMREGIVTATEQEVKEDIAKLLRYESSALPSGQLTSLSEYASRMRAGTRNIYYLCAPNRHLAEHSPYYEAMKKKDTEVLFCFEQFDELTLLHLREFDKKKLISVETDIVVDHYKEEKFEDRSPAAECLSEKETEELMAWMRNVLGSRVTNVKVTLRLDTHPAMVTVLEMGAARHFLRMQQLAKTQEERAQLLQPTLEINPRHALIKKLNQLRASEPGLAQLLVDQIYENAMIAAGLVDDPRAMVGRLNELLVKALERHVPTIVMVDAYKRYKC
The assay can be described thus: cryo-EM particle density on SpyTag affinity grid after washing. The protocol:
The irreversible covalent bond forms within minutes and is highly specific and robust, paving the way for “purification on the grid”. A buffer with a pH of 7.5 containing 20 mM HEPES, 60 mM KCl was used throughout the process. SpyCatcher was diluted with buffer to a final concentration of 1.4 μM. SpyTag peptide was first dissolved in DMSO to a concentration of 560 μM and then diluted with buffer to a final concentration of 2.8 μM. […] The grid was washed with DI water and ethanol 3 times, and dried in ambient for 1 hour. Then the grid was picked up by tweezers from VITROBOT™ IV (Fisher Thermo Scientfic) and placed horizontally.
After coupling the SpyTag or SpyCatcher to the maleimide grids, incubation with a cognate-tagged protein of interest efficiently formed a stable attachment in a matter of minutes. In a first example, a SpyTag grid was exposed to a dilute solution (270 nM) of the dimeric mitochondrial Hsp90 molecular chaperone (TRAP1, ˜150KDa) fused to either SpyTag (control) or SpyCatcher (cognate sample, total molecular weight ˜165KDa). The grids were extensively washed to remove unbound or loosely adsorbed proteins. TRAP1 with SpyCatcher or SpyTag was diluted in buffer with 1 mM ADP-BeFₓ/MgCl₂ and was incubated at 37° C. for 30 min to achieve a homogenous closed state of TRAP1²⁴. The concentration of TRAP1 was 270 nM in all cases. […]

Ends that are not written are not given here.

B1: SpyTag peptide anchored to the graphene oxide grid via a PEG spacer (peptide)
peptide: VPTIVMVDAYKRYKC
modifications: also: Cys coupled to azide-PEG-maleimide on graphene oxide film, position not given here
notes: also called SpyTag grid
As for B1, the binding result is “no binding (tested: 270 nM)”.

Values taken from US20210310910A1 (University of California, published 2021).
